What was measured:
[1] = molecular target: LILRB2 on transduced Baf3 cells (UniProt Q8N423); experiment: flow cytometry on cells
[2] = molecular target: HLA-B27 homodimer (B27 H chain dimer, β2m-free) (human); experiment: SPR

Row | Substance | percent reduction of bound B27 Flu NP heterotrimer tetramer over 1 hour [1] | Kd [2]
1 | HLA-B27 homodimer (B27 H chain dimer, β2m-free) (complex) | 43% | 
2 | LILRB2 incorporating the two immunoglobulin-like domains D1 and D2 (domain or fragment) |  | 2.5 µM

From article PMC3622243
